Reference: the supplement of paper PMC10065799, “High-throughput profiling of sequence recognition by tyrosine kinases and SH2 domains using bacterial peptide display” (eLife, 2023)

Columns and labels:
Grb2 SH2 = Grb2 SH2 (UniProt P62993); experiment: SH2 binding enrichment of the phosphorylated peptide, bacterial display (enrichment ratio); higher = better substrate or ligand; peptides without Tyr show the background
c-Src SH2 = experiment: as above
SHP2-C SH2 = experiment: as above
FGFR3 = FGFR3 (UniProt P22607); experiment: phosphorylation enrichment, bacterial display (enrichment ratio); higher = better substrate or ligand; peptides without Tyr show the background
Sequence of FGFR3 (P22607 whole entry, looked up): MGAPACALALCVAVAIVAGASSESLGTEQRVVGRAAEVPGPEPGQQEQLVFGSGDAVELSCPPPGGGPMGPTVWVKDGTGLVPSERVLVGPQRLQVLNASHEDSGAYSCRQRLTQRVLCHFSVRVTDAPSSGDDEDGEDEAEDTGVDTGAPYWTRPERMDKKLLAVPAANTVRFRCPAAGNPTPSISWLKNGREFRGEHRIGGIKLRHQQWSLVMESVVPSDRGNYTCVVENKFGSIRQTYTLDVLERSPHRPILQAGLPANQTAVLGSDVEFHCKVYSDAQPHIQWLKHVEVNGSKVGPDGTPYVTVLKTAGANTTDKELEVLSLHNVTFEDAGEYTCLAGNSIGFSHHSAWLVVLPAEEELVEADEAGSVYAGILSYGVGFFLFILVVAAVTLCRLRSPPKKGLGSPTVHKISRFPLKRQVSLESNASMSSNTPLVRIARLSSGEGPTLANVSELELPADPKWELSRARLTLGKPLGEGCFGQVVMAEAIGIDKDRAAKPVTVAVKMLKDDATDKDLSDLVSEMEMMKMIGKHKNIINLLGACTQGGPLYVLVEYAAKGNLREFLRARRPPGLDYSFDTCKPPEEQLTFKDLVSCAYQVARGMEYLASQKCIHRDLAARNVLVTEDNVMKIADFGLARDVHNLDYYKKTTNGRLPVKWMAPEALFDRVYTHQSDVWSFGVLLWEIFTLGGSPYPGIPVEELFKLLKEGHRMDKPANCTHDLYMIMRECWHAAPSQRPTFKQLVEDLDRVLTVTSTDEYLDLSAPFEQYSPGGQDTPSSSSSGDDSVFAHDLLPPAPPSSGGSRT

MERTK = MERTK (UniProt Q12866); experiment: as above
Hck = Hck (UniProt P08631); experiment: as above
Sequence of Hck (P08631 whole entry, looked up): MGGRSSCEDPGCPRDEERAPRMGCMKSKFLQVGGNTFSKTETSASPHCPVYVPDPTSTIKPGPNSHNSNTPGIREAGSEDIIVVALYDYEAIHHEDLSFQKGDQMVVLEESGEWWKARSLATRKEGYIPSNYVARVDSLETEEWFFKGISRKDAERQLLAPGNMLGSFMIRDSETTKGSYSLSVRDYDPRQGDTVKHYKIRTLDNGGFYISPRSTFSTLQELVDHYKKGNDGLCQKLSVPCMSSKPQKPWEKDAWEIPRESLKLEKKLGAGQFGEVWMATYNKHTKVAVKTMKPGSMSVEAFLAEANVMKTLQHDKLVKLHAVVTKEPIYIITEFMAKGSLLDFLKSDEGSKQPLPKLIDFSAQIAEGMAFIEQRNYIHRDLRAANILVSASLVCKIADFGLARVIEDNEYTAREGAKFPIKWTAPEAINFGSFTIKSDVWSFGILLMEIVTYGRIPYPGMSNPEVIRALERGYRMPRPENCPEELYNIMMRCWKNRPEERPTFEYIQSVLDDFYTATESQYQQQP

AncSZ = experiment: as above
Jak2 = Jak2 (UniProt O60674); experiment: as above
Sequence of Jak2 (O60674 whole entry, looked up): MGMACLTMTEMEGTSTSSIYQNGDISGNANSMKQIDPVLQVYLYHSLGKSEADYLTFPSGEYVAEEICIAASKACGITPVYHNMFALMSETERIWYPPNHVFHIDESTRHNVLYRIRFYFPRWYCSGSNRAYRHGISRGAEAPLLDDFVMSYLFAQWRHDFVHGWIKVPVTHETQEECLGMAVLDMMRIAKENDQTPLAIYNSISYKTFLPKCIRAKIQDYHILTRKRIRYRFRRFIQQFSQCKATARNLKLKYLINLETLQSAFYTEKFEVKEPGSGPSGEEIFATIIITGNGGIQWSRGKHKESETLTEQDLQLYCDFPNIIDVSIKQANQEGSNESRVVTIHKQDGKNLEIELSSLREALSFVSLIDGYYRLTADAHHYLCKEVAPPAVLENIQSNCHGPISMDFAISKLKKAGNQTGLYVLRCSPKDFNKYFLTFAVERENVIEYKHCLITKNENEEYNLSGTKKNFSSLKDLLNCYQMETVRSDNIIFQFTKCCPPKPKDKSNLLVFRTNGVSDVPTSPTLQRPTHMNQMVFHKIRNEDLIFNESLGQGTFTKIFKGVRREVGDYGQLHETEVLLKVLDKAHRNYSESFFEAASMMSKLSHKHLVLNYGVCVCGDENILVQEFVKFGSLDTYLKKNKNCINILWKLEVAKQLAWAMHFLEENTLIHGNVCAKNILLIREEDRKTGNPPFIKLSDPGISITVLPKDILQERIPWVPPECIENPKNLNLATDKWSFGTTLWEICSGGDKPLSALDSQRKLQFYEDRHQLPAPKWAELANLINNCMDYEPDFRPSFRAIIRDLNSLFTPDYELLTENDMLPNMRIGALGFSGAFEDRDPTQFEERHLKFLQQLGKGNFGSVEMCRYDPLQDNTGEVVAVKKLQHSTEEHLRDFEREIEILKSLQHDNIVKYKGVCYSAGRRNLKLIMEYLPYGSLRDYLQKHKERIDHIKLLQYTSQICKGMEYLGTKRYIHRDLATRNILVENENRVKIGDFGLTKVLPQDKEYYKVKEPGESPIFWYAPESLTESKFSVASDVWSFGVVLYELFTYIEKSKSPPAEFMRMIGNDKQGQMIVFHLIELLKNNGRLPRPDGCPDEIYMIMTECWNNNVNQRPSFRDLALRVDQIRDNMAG

Fyn = Fyn (UniProt P06241); experiment: as above
Sequence of Fyn (P06241 whole entry, looked up): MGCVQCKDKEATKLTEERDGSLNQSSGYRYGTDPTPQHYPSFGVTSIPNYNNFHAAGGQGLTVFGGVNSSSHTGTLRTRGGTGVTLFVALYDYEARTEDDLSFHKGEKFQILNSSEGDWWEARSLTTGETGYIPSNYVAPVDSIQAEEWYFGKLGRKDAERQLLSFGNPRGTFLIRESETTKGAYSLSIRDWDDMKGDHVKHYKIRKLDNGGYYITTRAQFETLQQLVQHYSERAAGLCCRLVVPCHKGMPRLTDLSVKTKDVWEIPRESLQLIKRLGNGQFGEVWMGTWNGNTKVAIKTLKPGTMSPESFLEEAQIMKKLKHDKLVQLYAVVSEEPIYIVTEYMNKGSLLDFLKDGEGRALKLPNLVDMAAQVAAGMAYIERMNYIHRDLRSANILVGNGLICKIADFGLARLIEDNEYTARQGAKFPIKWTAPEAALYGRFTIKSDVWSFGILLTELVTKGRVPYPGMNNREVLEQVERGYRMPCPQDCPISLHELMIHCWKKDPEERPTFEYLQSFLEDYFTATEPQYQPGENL

FGFR1 = FGFR1 (UniProt P11362); experiment: as above
Sequence of FGFR1 (P11362 whole entry, looked up): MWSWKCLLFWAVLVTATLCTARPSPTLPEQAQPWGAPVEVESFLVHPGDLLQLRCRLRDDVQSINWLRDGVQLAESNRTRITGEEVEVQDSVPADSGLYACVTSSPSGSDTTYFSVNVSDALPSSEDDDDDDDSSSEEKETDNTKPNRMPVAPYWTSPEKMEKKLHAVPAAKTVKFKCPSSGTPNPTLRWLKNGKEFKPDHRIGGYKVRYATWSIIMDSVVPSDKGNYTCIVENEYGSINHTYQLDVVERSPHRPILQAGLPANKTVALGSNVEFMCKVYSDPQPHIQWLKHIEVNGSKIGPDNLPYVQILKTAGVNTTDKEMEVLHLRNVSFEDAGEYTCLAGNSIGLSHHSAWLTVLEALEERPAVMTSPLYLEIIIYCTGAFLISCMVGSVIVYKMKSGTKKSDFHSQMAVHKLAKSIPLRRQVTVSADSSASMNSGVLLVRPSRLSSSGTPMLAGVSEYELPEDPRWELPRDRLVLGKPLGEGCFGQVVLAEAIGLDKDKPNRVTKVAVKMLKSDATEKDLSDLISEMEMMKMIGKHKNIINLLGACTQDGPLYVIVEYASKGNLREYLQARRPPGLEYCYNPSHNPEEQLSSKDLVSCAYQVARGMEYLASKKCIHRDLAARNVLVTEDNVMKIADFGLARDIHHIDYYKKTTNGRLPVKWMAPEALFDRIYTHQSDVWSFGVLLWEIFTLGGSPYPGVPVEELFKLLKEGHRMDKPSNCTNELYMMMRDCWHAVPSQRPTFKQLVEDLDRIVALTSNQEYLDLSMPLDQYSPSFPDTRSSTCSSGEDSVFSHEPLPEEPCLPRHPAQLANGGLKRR

Fes = Fes (UniProt P07332); experiment: as above
c-Abl (mouse) = experiment: as above
EPHB2 = EPHB2 (UniProt P29323); experiment: as above
c-Src = experiment: as above
EPHB1 = EPHB1 (UniProt P54762); experiment: as above
Sequence of EPHB1 (P54762 whole entry, looked up): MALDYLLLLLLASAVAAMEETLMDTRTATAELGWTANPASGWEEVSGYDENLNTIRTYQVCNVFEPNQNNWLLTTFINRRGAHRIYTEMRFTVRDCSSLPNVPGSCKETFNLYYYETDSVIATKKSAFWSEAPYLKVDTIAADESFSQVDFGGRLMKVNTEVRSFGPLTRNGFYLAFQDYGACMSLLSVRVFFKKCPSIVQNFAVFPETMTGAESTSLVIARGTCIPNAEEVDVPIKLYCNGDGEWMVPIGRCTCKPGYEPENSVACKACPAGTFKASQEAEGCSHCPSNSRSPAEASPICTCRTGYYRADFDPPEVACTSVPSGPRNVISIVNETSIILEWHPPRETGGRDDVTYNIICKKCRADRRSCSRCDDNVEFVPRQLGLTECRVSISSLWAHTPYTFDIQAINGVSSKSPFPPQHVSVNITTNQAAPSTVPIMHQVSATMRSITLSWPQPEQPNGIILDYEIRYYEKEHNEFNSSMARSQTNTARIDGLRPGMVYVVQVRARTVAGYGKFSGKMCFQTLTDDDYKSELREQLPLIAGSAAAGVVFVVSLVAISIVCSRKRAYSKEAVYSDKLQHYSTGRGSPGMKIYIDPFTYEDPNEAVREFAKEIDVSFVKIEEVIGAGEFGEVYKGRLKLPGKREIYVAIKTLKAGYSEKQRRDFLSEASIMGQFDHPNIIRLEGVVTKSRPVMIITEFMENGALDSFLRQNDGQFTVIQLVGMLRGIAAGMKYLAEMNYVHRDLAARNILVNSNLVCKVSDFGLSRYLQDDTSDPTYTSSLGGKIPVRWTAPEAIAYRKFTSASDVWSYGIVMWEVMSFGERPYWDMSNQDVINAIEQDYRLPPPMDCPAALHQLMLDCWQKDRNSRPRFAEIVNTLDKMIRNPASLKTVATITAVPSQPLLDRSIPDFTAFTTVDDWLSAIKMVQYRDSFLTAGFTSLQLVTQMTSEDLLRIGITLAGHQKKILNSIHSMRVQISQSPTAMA

Fer (mouse) = experiment: as above
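For SH2 binding enrichment of the phosphorylated peptide, bacterial display in this document: peptide library displayed on the E. coli surface as eCPX fusions, selected cells deep-sequenced, score is each peptide's frequency after selection divided by its frequency in the input.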
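For phosphorylation enrichment, bacterial display in this document: 11-residue human phosphosite peptides and single-mutation variants displayed on the E. coli surface, counted by deep sequencing, each peptide's frequency after selection divided by its frequency in the unselected input library; frequency after pTyr selection over input frequency; kinase dosed for 20-30% of maximal phosphorylation in three min.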

Row | SH2 binding enrichment (Grb2 SH2) | SH2 binding enrichment (c-Src SH2) | SH2 binding enrichment (SHP2-C SH2) | Sequence | phosphorylation enrichment (FGFR3) | phosphorylation enrichment (MERTK) | phosphorylation enrichment (Hck) | phosphorylation enrichment (AncSZ) | phosphorylation enrichment (Jak2) | phosphorylation enrichment (Fyn) | phosphorylation enrichment (FGFR1) | phosphorylation enrichment (Fes) | phosphorylation enrichment (c-Abl (mouse)) | phosphorylation enrichment (EPHB2) | phosphorylation enrichment (c-Src) | phosphorylation enrichment (EPHB1) | phosphorylation enrichment (Fer (mouse))
1 | 0.755 | 0.553 | 0.532 | RTLSEYARPHV [RERE_Y1259] | 0.51 | 0.443 | 0.683 | 1.14 | 0.871 | 0.668 | 0.606 | 1.11 | 31.7 | 0.852 | 0.454 | 0.832 | 0.468
2 | 0.994 | 0.564 | 0.732 | RVGNMYVRGLS [ABCG8_Y209] | 0.682 | 0.395 | 0.675 | 0.672 | 0.709 | 0.574 | 0.58 | 0.839 | 0.494 | 0.471 | 0.331 | 0.457 | 0.468
3 | 0.853 | 0.493 | 0.727 | RVLQLYGCSPS [ASTL_Y279_K277Q] | 1.26 | 0.576 | 2.33 | 1.69 | 1.48 | 1.54 | 1.06 | 1.72 | 1.38 | 1.71 | 1.38 | 1.3 | 1.15
4 | 0.806 | 0.643 | 0.502 | SAVVPYEPPEV [TP53_Y220_V216A] | 0.761 | 0.409 | 0.513 | 1.23 | 0.998 | 0.556 | 0.586 | 1.21 | 0.649 | 0.608 | 0.484 | 0.643 | 0.479
5 | 0.7 | 0.586 | 0.805 | SDFSSYARTSI [TERT_Y949_YF] | 0.613 | 0.477 | 0.453 | 0.877 | 0.798 | 0.488 | 0.514 | 0.834 | 0.55 | 0.625 | 0.506 | 0.546 | 0.56
6 | 0.84 | 0.614 | 0.576 | SDVWSYGVTMW [ZAP70_Y525] | 0.847 | 0.502 | 0.695 | 1.15 | 1.26 | 0.477 | 0.557 | 1.39 | 0.979 | 0.695 | 0.54 | 0.688 | 0.63
7 | 1.15 | 0.594 | 0.646 | SEDANYKRVSC [TTC3_Y1288] | 0.696 | 0.449 | 0.532 | 0.886 | 1.06 | 0.612 | 0.418 | 1.02 | 0.82 | 0.55 | 0.442 | 0.558 | 0.491
8 | 0.739 | 0.475 | 0.698 | SENAFYLSPDI [COL6A3_Y2827] | 0.841 | 0.754 | 0.687 | 1.69 | 1.68 | 0.607 | 0.762 | 1.21 | 1.49 | 0.687 | 0.607 | 0.793 | 0.724
